Results from publication PMC11417369, “DNA sequence and chromatin differentiate sequence-specific transcription factor binding in the human malaria parasite Plasmodium falciparum”.

T1: SIP2 D1 (Plasmodium falciparum, UniProt C6KSN9 177-235)
T1 sequence: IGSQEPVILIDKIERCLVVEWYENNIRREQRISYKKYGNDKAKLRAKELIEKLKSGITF

T2: PF3D7_0420300 D1 (Plasmodium falciparum, UniProt Q8I1N6 1956-2015)
T2 sequence: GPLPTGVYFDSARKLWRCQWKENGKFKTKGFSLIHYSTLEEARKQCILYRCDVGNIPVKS


target: T1, SIP2 D1; experiment: gcPBM; about 25 ug protein; PBS, 1% milk, 0.2 mg/ml BSA, salmon testes DNA, 0.03% Triton X-100; settings: tags: N-terminal GST (pGEX-4T-1), kept; label: surface-attached array probe

Binder | binding signal
GTGCAC_site10625 (dsDNA) DNA 1: TTTTTATTTTCATATGTGCACTTATATATATATATA DNA 2: TATATATATATATAAGTGCACATATGAAAATAAAAA | 10.1 ln median PBM intensity, better of two orientations
GTGCAC_site10243 (dsDNA) DNA 1: ACATATTAAATATGAGTGCAATATATATATATATAA DNA 2: TTATATATATATATATTGCACTCATATTTAATATGT | 8.44 ln median PBM intensity, better of two orientations
GTGCAC_site10571 (dsDNA) DNA 1: GATTATTTCTAAAAAGTGCATATTTAAAAATCTCCT DNA 2: AGGAGATTTTTAAATATGCACTTTTTAGAAATAATC | 9.76 ln median PBM intensity, better of two orientations
GTGCAC_site10360 (dsDNA) DNA 1: TACCCTTGCATGTAGGTGCAATTTTTTTTTTTTTTT DNA 2: AAAAAAAAAAAAAAATTGCACCTACATGCAAGGGTA | 10 ln median PBM intensity, better of two orientations
GTGCAC_site9739 (dsDNA) DNA 1: TTATAAATATTCACTGTGCACTGATGGAATATAAAT DNA 2: ATTTATATTCCATCAGTGCACAGTGAATATTTATAA | 9.91 ln median PBM intensity, better of two orientations
GTGCAC_site9721 (dsDNA) DNA 1: TATATATATATATATGTGCACTGGACATATTTTTAT DNA 2: ATAAAAATATGTCCAGTGCACATATATATATATATA | 9.71 ln median PBM intensity, better of two orientations
GTGCAC_site10182 (dsDNA) DNA 1: GTATGATGCATAAGAGTGCATAAGGATATTTCTTCA DNA 2: TGAAGAAATATCCTTATGCACTCTTATGCATCATAC | 9.94 ln median PBM intensity, better of two orientations
GTGCAC_site9963 (dsDNA) DNA 1: AATAATAAAAATATTGTGCACTTGTATATTTATTAT DNA 2: ATAATAAATATACAAGTGCACAATATTTTTATTATT | 9.87 ln median PBM intensity, better of two orientations
GTGCAC_site9473 (dsDNA) DNA 1: TGTATTAACAAAAAGGTGCGGATATATATAAAAAAT DNA 2: ATTTTTTATATATATCCGCACCTTTTTGTTAATACA | 9.85 ln median PBM intensity, better of two orientations
GTGCAC_site9783 (dsDNA) DNA 1: TAAATTTATATATAGGTGCGCAATTTGATAATAGTT DNA 2: AACTATTATCAAATTGCGCACCTATATATAAATTTA | 10 ln median PBM intensity, better of two orientations
GTGCAC_site10077 (dsDNA) DNA 1: TTCATTCAAATTAACGTGCACATTATTAGTAAAAAC DNA 2: GTTTTTACTAATAATGTGCACGTTAATTTGAATGAA | 10 ln median PBM intensity, better of two orientations
GTGCAC_site10065 (dsDNA) DNA 1: CTTAAAATATATTTAGTGCATATACTAATATATTAT DNA 2: ATAATATATTAGTATATGCACTAAATATATTTTAAG | 8.52 ln median PBM intensity, better of two orientations
GTGCAC_site10440 (dsDNA) DNA 1: TATTACACATATTATGTGCACATATATAATCAATAT DNA 2: ATATTGATTATATATGTGCACATAATATGTGTAATA | 8.5 ln median PBM intensity, better of two orientations
GTGCAC_site10768 (dsDNA) DNA 1: TATATATATCTTTTGGTGCATATTTCGAATATATGT DNA 2: ACATATATTCGAAATATGCACCAAAAGATATATATA | 10.2 ln median PBM intensity, better of two orientations
GTGCAC_site9684 (dsDNA) DNA 1: TGTACGAGTCGTAGAGTGCAGTCTGGAGAAGAGTAC DNA 2: GTACTCTTCTCCAGACTGCACTCTACGACTCGTACA | 8.45 ln median PBM intensity, better of two orientations
GTGCAC_site9748 (dsDNA) DNA 1: GTTAATCACCATGTGGTGCATATAAGGGCATATTAT DNA 2: ATAATATGCCCTTATATGCACCACATGGTGATTAAC | 10.1 ln median PBM intensity, better of two orientations
GTGCAC_site9916 (dsDNA) DNA 1: TATTTCTTTTGGTTGGTGCATAAAATAATACAATAT DNA 2: ATATTGTATTATTTTATGCACCAACCAAAAGAAATA | 10.2 ln median PBM intensity, better of two orientations

target: T2, PF3D7_0420300 D1; experiment: as above; settings: tags: N-terminal GST (pGEX-4T-1), kept; label: surface-attached array probe

Binder | binding signal
CACACA_site7579 (dsDNA) DNA 1: TATACACATATATACACACACATATATAAATAAATA DNA 2: TATTTATTTATATATGTGTGTGTATATATGTGTATA | 9.98 ln median PBM intensity, better of two orientations
CACACA_site8724 (dsDNA) DNA 1: AACACATACATATATACACACACAAAATAATAAAAT DNA 2: ATTTTATTATTTTGTGTGTGTATATATGTATGTGTT | 10.1 ln median PBM intensity, better of two orientations
CACACA_site757 (dsDNA) DNA 1: AAACTTGACAGACACACACACACATATATAAAAAAA DNA 2: TTTTTTTATATATGTGTGTGTGTGTCTGTCAAGTTT | 10.1 ln median PBM intensity, better of two orientations
CACACA_site2053 (dsDNA) DNA 1: AAATTTATTATGAACATACACACAAAAAAAAAAAGT DNA 2: ACTTTTTTTTTTTGTGTGTATGTTCATAATAAATTT | 9.98 ln median PBM intensity, better of two orientations
CACACA_site5427 (dsDNA) DNA 1: TAATTATGCGGACACACACACACACCCAACTAAAAA DNA 2: TTTTTAGTTGGGTGTGTGTGTGTGTCCGCATAATTA | 10.1 ln median PBM intensity, better of two orientations
CACACA_site2569 (dsDNA) DNA 1: TAATTATGCAGACACACACACACACCCAACTAAAAA DNA 2: TTTTTAGTTGGGTGTGTGTGTGTGTCTGCATAATTA | 10.1 ln median PBM intensity, better of two orientations
CACACA_site748 (dsDNA) DNA 1: ATTTTTTTTTTTTCCTTACACACATATTTCATTTTA DNA 2: TAAAATGAAATATGTGTGTAAGGAAAAAAAAAAAAT | 9.99 ln median PBM intensity, better of two orientations
CACACA_site7431 (dsDNA) DNA 1: CTTGTCATTTTGCACACACACATGTATAGGTTATTA DNA 2: TAATAACCTATACATGTGTGTGTGCAAAATGACAAG | 10.1 ln median PBM intensity, better of two orientations
CACACA_site710 (dsDNA) DNA 1: AAAAAAAGATTATACACACACATATATAAACCTACA DNA 2: TGTAGGTTTATATATGTGTGTGTATAATCTTTTTTT | 10.1 ln median PBM intensity, better of two orientations
CACACA_site6794 (dsDNA) DNA 1: AAAAAAAAAAAAAACACACACACACGCATACAAAAT DNA 2: ATTTTGTATGCGTGTGTGTGTGTTTTTTTTTTTTTT | 10.1 ln median PBM intensity, better of two orientations
CACACA_site7142 (dsDNA) DNA 1: TAGTAAAAGATATACACACACCAAAAAATATAATTA DNA 2: TAATTATATTTTTTGGTGTGTGTATATCTTTTACTA | 10 ln median PBM intensity, better of two orientations
CACACA_site5776 (dsDNA) DNA 1: ATTATAAATACACGCACACACACTTATATATATATA DNA 2: TATATATATATAAGTGTGTGTGCGTGTATTTATAAT | 9.96 ln median PBM intensity, better of two orientations
CACACA_site2906 (dsDNA) DNA 1: AATATAAATAAACACACACACATATATATATATATT DNA 2: AATATATATATATATGTGTGTGTGTTTATTTATATT | 10.1 ln median PBM intensity, better of two orientations
CACACA_site8411 (dsDNA) DNA 1: AAAAAAAAAAAACACACACACACACCGACAAAATAT DNA 2: ATATTTTGTCGGTGTGTGTGTGTGTTTTTTTTTTTT | 10.2 ln median PBM intensity, better of two orientations
CACACA_site8938 (dsDNA) DNA 1: TAATTAAATACATTAACACACACACTAATATATACA DNA 2: TGTATATATTAGTGTGTGTGTTAATGTATTTAATTA | 10 ln median PBM intensity, better of two orientations
CACACA_site1251 (dsDNA) DNA 1: TACAATTTAAAACACACACACAATAATACATATATA DNA 2: TATATATGTATTATTGTGTGTGTGTTTTAAATTGTA | 10.1 ln median PBM intensity, better of two orientations
CACACA_site8723 (dsDNA) DNA 1: TATTCCCCCCAACACACACACACACCGACATACCAC DNA 2: GTGGTATGTCGGTGTGTGTGTGTGTTGGGGGGAATA | 10.8 ln median PBM intensity, better of two orientations
CACACA_site1104 (dsDNA) DNA 1: AAAAAAAAAAAAAACACACACACAAAAAAAAATATA DNA 2: TATATTTTTTTTTGTGTGTGTGTTTTTTTTTTTTTT | 10.1 ln median PBM intensity, better of two orientations
CACACA_site399 (dsDNA) DNA 1: AACAACCAAAGGCACACACACAAAAAAAAAAATATA DNA 2: TATATTTTTTTTTTTGTGTGTGTGCCTTTGGTTGTT | 10 ln median PBM intensity, better of two orientations
CACACA_site7188 (dsDNA) DNA 1: GTGCATAAATCATACACACACACATATATAAATATA DNA 2: TATATTTATATATGTGTGTGTGTATGATTTATGCAC | 9.95 ln median PBM intensity, better of two orientations
CACACA_site4117 (dsDNA) DNA 1: TATATATATATAGACACACACACACCCATATATATA DNA 2: TATATATATGGGTGTGTGTGTGTCTATATATATATA | 10 ln median PBM intensity, better of two orientations
CACACA_site8200 (dsDNA) DNA 1: AAACTTAATATCGGTACACACACAAGATAAGAATTA DNA 2: TAATTCTTATCTTGTGTGTGTACCGATATTAAGTTT | 9.96 ln median PBM intensity, better of two orientations
CACACA_site5111 (dsDNA) DNA 1: TATTTATAAATTTACACACACACATGGGAACATAAA DNA 2: TTTATGTTCCCATGTGTGTGTGTAAATTTATAAATA | 10.1 ln median PBM intensity, better of two orientations
CACACA_site8978 (dsDNA) DNA 1: TGAGTCTTTTACATTGCACACACATTTCTTTCCTTT DNA 2: AAAGGAAAGAAATGTGTGTGCAATGTAAAAGACTCA | 9.97 ln median PBM intensity, better of two orientations
CACACA_site9118 (dsDNA) DNA 1: AAAAAAAACGCACATACACACACACCCATATATATA DNA 2: TATATATATGGGTGTGTGTGTATGTGCGTTTTTTTT | 10 ln median PBM intensity, better of two orientations
CACACA_site4903 (dsDNA) DNA 1: AAAAACCATTGGCACACACACATAATATATAATATA DNA 2: TATATTATATATTATGTGTGTGTGCCAATGGTTTTT | 10 ln median PBM intensity, better of two orientations
